This experiment addresses Polyketide synthase 13 (Pks13) of Mycobacterium smegmatis (Mycobacterium smegmatis) (UniProt A0R617). The experiment is described as follows: native gel or EMSA; blue native PAGE of the protein of both sizing-column peaks; purified in β-DDM. (In general: In EMSA bound probe runs differently from free probe, usually more slowly.)

One may read the stoichiometry N as a count of units in the complex or per binding partner.

For “Polyketide synthase 13 (Pks13) of Mycobacterium smegmatis (from UniProt A0R617 1-1816) (enzyme)”, the stoichiometry N was 2.
